Test results reported in PMC5364480.
Blank lines part the entries; values can stand above or below the substance they belong to.

Assays:
FLC [1] = target: FLC (UniProt Q9S7Q7); test: yeast two-hybrid; settings: p>0.05 (open symbol); parent: 1; read off a plot
SOC1 [2] = target: SOC1 (UniProt O64645); test: yeast two-hybrid; settings: p>0.05 (open symbol); parent: 1; read off a plot
SOC1 [3] = target: SOC1 (UniProt O64645); test: two-hybrid; pGADT7 AD and pGBKT7 BD vectors co-transformed into yeast Y187; quantitative β-galactosidase assay with ONPG (Miller units)
…3 (Arabidopsis) = …3 (Arabidopsis) (UniProt O22456); test: as above
FLC [4] = target: FLC (UniProt Q9S7Q7); test: as above
FLC, SEP3 and SOC1 = test: as above

Sequence of FLC (Q9S7Q7 whole entry): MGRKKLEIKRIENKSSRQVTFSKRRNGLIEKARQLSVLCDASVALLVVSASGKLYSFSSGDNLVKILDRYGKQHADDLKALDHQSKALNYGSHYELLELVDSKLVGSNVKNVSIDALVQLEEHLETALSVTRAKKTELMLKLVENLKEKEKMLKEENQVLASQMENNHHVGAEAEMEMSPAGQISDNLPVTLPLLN
Sequence of …3 (Arabidopsis) (O22456 whole entry): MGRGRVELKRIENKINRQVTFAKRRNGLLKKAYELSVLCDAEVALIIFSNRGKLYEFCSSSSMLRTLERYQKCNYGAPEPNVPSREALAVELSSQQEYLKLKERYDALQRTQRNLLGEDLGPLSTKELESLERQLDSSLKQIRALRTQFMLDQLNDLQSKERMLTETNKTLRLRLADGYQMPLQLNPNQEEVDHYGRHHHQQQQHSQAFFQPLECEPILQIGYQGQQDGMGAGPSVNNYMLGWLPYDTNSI
Sequence of SOC1 (O64645 whole entry): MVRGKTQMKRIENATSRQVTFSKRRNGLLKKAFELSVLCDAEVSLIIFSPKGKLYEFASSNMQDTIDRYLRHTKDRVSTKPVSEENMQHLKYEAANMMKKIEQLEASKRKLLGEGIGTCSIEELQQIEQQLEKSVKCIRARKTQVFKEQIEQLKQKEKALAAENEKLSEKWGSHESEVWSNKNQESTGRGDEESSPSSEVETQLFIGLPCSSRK

- ratio to parent (FLC [1]): 1.1
Substance: SHORT … PHASE (from UniProt Q9FVC1) ins220Y-221D

- ratio to parent (SOC1 [2]): 0.94
Substance: SHORT … PHASE, Q9FVC1 ins80M

- percent decrease of binding against wild-type SVP (SOC1 [3]): 28%
- percent decrease of binding against wild-type SVP (…3 (Arabidopsis)): 22%
Substance: SVP C-domain insertion 220–221 YD (from UniProt Q9FVC1 1-240) (natural protein)

- percent decrease of binding against wild-type SVP (SOC1 [3]): 86%
- percent decrease of binding against wild-type SVP (FLC [4]): 44%
- percent increase of interaction strength against wild-type SVP (…3 (Arabidopsis)): 6%
Substance: SVP Del89V (from UniProt Q9FVC1 1-240) (natural protein)

- percent increase of binding against wild-type SVP (SOC1 [3]): 40%
- percent increase of binding against wild-type SVP (FLC [4]): 40%
- percent decrease of binding against wild-type SVP (…3 (Arabidopsis)): 73%
Substance: SVP Q127R (from UniProt Q9FVC1 1-240) (natural protein)

- percent decrease of binding against wild-type SVP (FLC [4]): 64%
- percent decrease of binding against wild-type SVP (…3 (Arabidopsis)): 64%
Substance: SVP ins80M (from UniProt Q9FVC1 1-240) (natural protein)

- percent decrease of binding against wild-type SVP (FLC, SEP3 and SOC1): 84 to 95%
Substance: SVP with the unique C-domain insertion 176–196 deleted (from UniProt Q9FVC1 1-240) (natural protein)
